Assay results from US20250313620A1.

How the values were obtained:
[1] = target: PD-1 on in vitro activated primary human T cells (human) (UniProt Q15116); assay: flow cytometry, PD-1 staining of activated T cells, media only
[2] = target: PD-1 on in vitro activated primary human T cells (human) (UniProt Q15116); assay: flow cytometry, PD-1 staining of activated T cells treated with IL-15 1 nM
[3] = target: PD-1 on in vitro activated primary human T cells (human) (UniProt Q15116); assay: flow cytometry, PD-1 staining of activated T cells treated with IL-15 10 nM
[4] = target: PD-1 on in vitro activated primary human T cells (human) (UniProt Q15116); assay: flow cytometry, PD-1 staining of activated T cells treated with IL-15 100 nM
[5] = target: PD-1 on in vitro activated primary human T cells (human) (UniProt Q15116); assay: flow cytometry, PD-1 staining of activated T cells treated with RV1 precomplexed with IL-15, 1 nM
[6] = target: PD-1 on in vitro activated primary human T cells (human) (UniProt Q15116); assay: flow cytometry, PD-1 staining of activated T cells treated with RV2 precomplexed with IL-15, 1 nM
[7] = target: PD-1 on in vitro activated primary human T cells (human) (UniProt Q15116); assay: flow cytometry, PD-1 staining of activated T cells treated with RV1 precomplexed with IL-15, 10 nM
[8] = target: PD-1 on in vitro activated primary human T cells (human) (UniProt Q15116); assay: flow cytometry, PD-1 staining of activated T cells treated with RV2 precomplexed with IL-15, 10 nM
[9] = target: PD-1 on in vitro activated primary human T cells (human) (UniProt Q15116); assay: flow cytometry, PD-1 staining of activated T cells treated with RV1 precomplexed with IL-15, 100 nM
[10] = target: PD-1 on in vitro activated primary human T cells (human) (UniProt Q15116); assay: flow cytometry, PD-1 staining of activated T cells treated with RV2 precomplexed with IL-15, 100 nM
[11] = target: PD-1 on in vitro activated primary human T cells (human) (UniProt Q15116); assay: flow cytometry, PD-1 staining of activated T cells treated with IL-15Rα-Fc precomplexed with IL-15, 1 nM
[12] = target: PD-1 on in vitro activated primary human T cells (human) (UniProt Q15116); assay: flow cytometry, PD-1 staining of activated T cells treated with IL-15Rα-Fc precomplexed with IL-15, 10 nM
[13] = target: PD-1 on in vitro activated primary human T cells (human) (UniProt Q15116); assay: flow cytometry, PD-1 staining of activated T cells treated with IL-15Rα-Fc precomplexed with IL-15, 100 nM
[14] = target: PD-1 on in vitro activated primary human T cells (human) (UniProt Q15116); assay: flow cytometry, PD-1 staining of Ki-67 positive activated T cells, average over the non-PD-1-binding treatments

PD-1 on in vitro activated primary human T cells (human), sequence (Q15116 25-288): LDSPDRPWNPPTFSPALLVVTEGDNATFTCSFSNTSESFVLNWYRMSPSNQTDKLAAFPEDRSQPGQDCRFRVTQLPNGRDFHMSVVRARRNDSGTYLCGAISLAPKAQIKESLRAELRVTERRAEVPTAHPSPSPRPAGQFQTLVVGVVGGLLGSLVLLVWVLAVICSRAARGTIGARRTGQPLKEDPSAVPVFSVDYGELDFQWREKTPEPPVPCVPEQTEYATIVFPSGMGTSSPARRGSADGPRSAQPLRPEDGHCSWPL

B1: PD-1 detection antibody (clone EH12.2H7) (antibody, from another filing, V domains shown)
VH: QVQLQQSGAELAKPGASVQMSCKASGYSFTSSWIHWVKQRPGQGLEWIGYIYPSTGFTEYNQKFKDKATLTADKSSSTAYMQLSSLTSEDSAVYYCARWRDSSGYHAMDYWGQGTSVTVSS
VL: DIVLTQSPASLTVSLGQRATISCRASQSVSTSGYSYMHWYQQKPGQPPKLLIKFGSNLESGIPARFSGSGSGTDFTLNIHPVEEEDTATYYCQHSWEIPYTFGGGTKLEIK
An MFI of PD-1 in Ki-67 positive CD4+ T cells [1] of 4020 MFI, an MFI of PD-1 in Ki-67 positive CD8+ T cells [1] of 2250 MFI and an MFI of PD-1 in Ki-67 positive CD4+ T cells [2] of 4870 MFI were found for B1 in this work. The MFI of PD-1 in Ki-67 positive CD8+ T cells [2] was 2050 MFI, the MFI of PD-1 in Ki-67 positive CD4+ T cells [3] was 6440 MFI and the MFI of PD-1 in Ki-67 positive CD8+ T cells [3] was 3190 MFI. For the same binder, the MFI of PD-1 in Ki-67 positive CD4+ T cells [4] was 6550 MFI, the MFI of PD-1 in Ki-67 positive CD8+ T cells [4] was 3220 MFI and the MFI of PD-1 in Ki-67 positive CD4+ T cells [5] was 4100 MFI. The MFI of PD-1 in Ki-67 positive CD8+ T cells [5] was 1870 MFI, the MFI of PD-1 in Ki-67 positive CD4+ T cells [6] was 4200 MFI and the MFI of PD-1 in Ki-67 positive CD8+ T cells [6] was 1920 MFI. The MFI of PD-1 in Ki-67 positive CD4+ T cells [7] was 4620 MFI, the MFI of PD-1 in Ki-67 positive CD8+ T cells [7] was 1890 MFI and the MFI of PD-1 in Ki-67 positive CD4+ T cells [8] was 5070 MFI. The MFI of PD-1 in Ki-67 positive CD8+ T cells [8] was 2020 MFI, the MFI of PD-1 in Ki-67 positive CD4+ T cells [9] was 4830 MFI and the MFI of PD-1 in Ki-67 positive CD8+ T cells [9] was 2370 MFI. The MFI of PD-1 in Ki-67 positive CD4+ T cells [10] was 5840 MFI, the MFI of PD-1 in Ki-67 positive CD8+ T cells [10] was 2820 MFI and the MFI of PD-1 in Ki-67 positive CD4+ T cells [11] was 4280 MFI. It also gave an MFI of PD-1 in Ki-67 positive CD8+ T cells [11] of 1690 MFI, an MFI of PD-1 in Ki-67 positive CD4+ T cells [12] of 4480 MFI and an MFI of PD-1 in Ki-67 positive CD8+ T cells [12] of 2120 MFI. For the same binder, the MFI of PD-1 in Ki-67 positive CD4+ T cells [13] was 4380 MFI, the MFI of PD-1 in Ki-67 positive CD8+ T cells [13] was 2110 MFI and the MFI of PD-1 staining, average, CD4+ cells [14] was 4830 MFI. For the same binder, the MFI of PD-1 staining, average, CD8+ cells [14] was 2190 MFI.
